Source: US5795718, “Detection of complementary nucleotide sequences” (Boehringer Mannheim Corporation)

Legend:
BamHI = target: T1, BamHI (UniProt P23940 P23940:1-213); assay: cleavage_in_vitro; complementation rate 47.16 to 114.07 mAU/min after BamHI; 37 C, 40 min; settings: chain copies: 2; 24 bp duplex within circular ssDNA
T1 sequence: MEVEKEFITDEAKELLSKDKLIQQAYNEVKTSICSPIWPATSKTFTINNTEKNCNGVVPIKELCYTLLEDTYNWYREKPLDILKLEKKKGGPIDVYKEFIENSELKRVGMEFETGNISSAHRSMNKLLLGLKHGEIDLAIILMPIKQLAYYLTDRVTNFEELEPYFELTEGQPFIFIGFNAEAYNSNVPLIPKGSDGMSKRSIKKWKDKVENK
Text: Complementation Activity of ED4-BP-1 Before and After Hybridization To Target Nucleic Acid In order to determine whether an ED-nucleic acid conjugate would be useful as a probe for the complementation activity detection of specific nucleic acid sequences, a conjugate was made of ED4 and BP-1. BP-1 is a single-stranded DNA oligonucleotide 24 bases long (SEQ ID NO:1, FIG. 2). The BP-1 sequence is complementary to the multiple cloning site region of the single-stranded DNA from the bacteriophage M13 mp18 (SEQ ID NO:2, FIG. 3). The viral DNA which is about 7250 bases in length was used as a model target nucleic acid. 2.4×10^-10 mol of ED4-BP-1 conjugate was incubated with and without 2.4×10^-9 mol of M13 mp18 DNA at 55° C. for 10 minutes. EA (20 U/test) and CPRG (2.0 mg/ml final) were then added and the mixture incubated at 37° C. for 4 minutes. The rate of increase in A$574$ was measured per minute between 4 and 6 minutes. The rates of complementation were 80.73 and 47.16 mAU/min without and with target M13 DNA mp18 DNA, respectively. Therefore complementation was reduced approximately 42% (FIG. 4) by hybridization with the target nucleic acid.
ED4-BP-1 was hybridized to M13 mp18 for 10 min at 55° C. […] The complementation efficiency of the ED4-BP-1/M13 mp18 complex before and after digestion with Bam HI was measured. The rate of increase in A574 was measured per minute as described above. […]

Nuclease P1 [1] = target: T2, Nuclease P1 (UniProt P24289 P24289:1-270); assay: cleavage_in_vitro; almost 5-fold complementation increase; 20 mM Na acetate pH 5.3, 4 mM Mg acetate, 37 C, 16.5 min; settings: tags: Bethesda Research Laboratories
Protocol: ED4-$T20$ was incubated at 37° C. for 16.5 minutes with various amounts of nuclease, P1 (Bethesda Research Laboratories), in 20 mM Na acetate pH 5.3, 4 mM Mg acetate. At the end of the incubation period, EA and the substrate, CPRG, were added in 150 mM Na phosphate, pH 7.2, 400 mM NaCl, 10 mM EGTA, 0.05% Tween 20 and 10 mM methionine. The rate of product formation was measured at 574 nm in mAU/min. The results (FIG. 1) indicate that the complementation activity of ED4-$T20$ can be increased by digestion of the conjugate with nuclease. An almost 5-fold increase in activity is seen between the use of no nuclease and highest concentration […] conditions.

Nuclease P1 [2] = target: T2, Nuclease P1; assay: cleavage_in_vitro; 183.54 to 467.93 mAU/min after digestion; 20 mM Na acetate pH 5.3, 4 mM Mg acetate, 37 C; settings: tags: Bethesda Research Laboratories

T2 sequence (P24289 whole entry, one chain of several): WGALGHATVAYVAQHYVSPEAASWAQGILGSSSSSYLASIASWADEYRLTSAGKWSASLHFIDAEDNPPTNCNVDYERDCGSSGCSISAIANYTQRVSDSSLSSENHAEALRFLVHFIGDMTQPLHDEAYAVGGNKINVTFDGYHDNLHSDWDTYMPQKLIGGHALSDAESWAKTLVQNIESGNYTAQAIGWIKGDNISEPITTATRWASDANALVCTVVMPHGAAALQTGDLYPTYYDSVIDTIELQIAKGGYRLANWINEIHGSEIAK

B1: ED4-BP-1/M13 mp18 hybrid (dsDNA)
DNA 1: GAGGATCCCCGGGTACCGAGCTCG
DNA 2: TGATTACGAATTCGAGCTCGGTACCCGGGGATCCTCTAGAGTCGA
modifications: 5' amine linker (3 or 6 carbons) SMCC-conjugated to ED4 peptide on BP-1
B1 was tested. Which activity (BamHI) did it give?
Its activity is 2.4 fold.

B2: ED4-T20 (ssDNA)
DNA: TTTTTTTTTTTTTTTTTTTT
modifications: 5' amine linker SMCC-conjugated to ED4 peptide
B2 was tested. Which activity (Nuclease P1 [1]) did it give?
The activity was roughly 5 fold.

B3: ED4-BP-1 (ssDNA)
DNA: GAGGATCCCCGGGTACCGAGCTCG
modifications: 5' amine linker SMCC-conjugated to ED4 peptide
For B3, which activity (Nuclease P1 [2]) is on record?
Its activity is roughly 2.5 fold.
